These are literature values, as cited in PMC5368065.

The target of data set [1] is MLL1 (Homo sapiens) (UniProt Q03164).
Data set [2] has as its target MLL1 MBM1-MBM2 (Homo sapiens) (UniProt Q03164).

The Kd is a measure of binding affinity in units of concentration. On to Menin (from UniProt O00255), for which the Kd in data set [1] and in data set [2] was 10 nM in each case.
